From patent US20260097134A1, “COMPOSITIONS AND METHODS FOR PRECISE EDITING OF HUMAN DYSTROPHIN” (Mammoth Biosciences, Inc., priority 2023, published 2026) come the findings set out here.

Numbering of substitutions follows the chain as printed. In names and notes the source's numbering stands.

For one experiment, the system named is mouse PCSK9 gene. Briefly: In vivo editing of PCSK9 in muscle tissues via AAV9-4A delivery of CasPhi.12 and CasM.265466 variants, indels by NGS. Further details: species or system C57BL/6J mice. To be noted: for inducing indels in vivo at the PCSK9 locus across different muscle tissues: summary in words. From the text:
The purpose of the study was to assess the capability of two effector protein variants, CasPhi.12 L26R (a variant of CasPhi.12) and CasM.265466 D220R (a variant of CasM.265466), to edit nucleic acid sequences within muscle tissues in vivo. The study focused on PCSK9 as an exemplary gene target.
In this study, an AAV9-4A vector was employed as the delivery vehicle for introducing the effector protein and gRNA into the specific target tissues. The DNA encoding the effector protein (e.g., SaCas9, CasPhi.12 L26R, or CasM.265466 D220R) and its corresponding promoter (e.g., ck8e or spc5), along with the DNA encoding the gRNA containing the targeting spacer sequence specific to PCSK9 (referred to as PCSK9 in the plasmid) and its u6 promoter were cloned into the AAV9-4A plasmid between the AAV inverted terminal repeats (ITRs), creating AAV9 constructs as follows: • 1) pssAAV-ITR-u6-PCSK9-ck8e-saCas9-bGHpolya-ITR (PL26295) • 2) pssAAV-ITR-u6-PCSK9-ck8e-L26R-wpre-hGHpolya-ITR (PL26297) • 3) pssAAV-ITR-u6-PCSK9-spc5-12-L26R-wpre-hGHpolya-ITR (PL31718) • 4) pssAAV-ITR-u6-PCSK9-ck8e-D220R-wpre-hGHpolya-ITR (PL31719) • 5) pssAAV-ITR-u6-PCSK9-spc5-12-D220R-wpre-hGHpolya-ITR (PL31720) • 6) pscAAV-ITR-u6-PCSK9-Spc5-12-D220R-HSVpolyA-ITR (PL31721)
The sequences of the gRNA designed for use in conjunction with SaCas9, CasPhi.12 L26R, or CasM.265466 D220R for targeting the mouse PCSK9 gene are provided in TABLE 14.
6-week old male C57BL/6J mice were given a single intravenous (IV) bolus through the tail vein using a 1.0 cc syringe with a 27G-⅝″ needle or a single intramuscular (IM) bolus into the gastrocnemius.
4 weeks after the treatment, the mice were euthanized for assessment. Before collecting the tissues, the mice underwent whole-body perfusion via the left ventricle using 5.0-10.0 mL of PBS to remove any remaining blood from the tissues. Tissue samples weighing 100 mg were then dissected from the liver, heart, gastrocnemius, diaphragm, pectoral, and masseter, respectively, and placed on a plate for subsequent Next-Generation Sequencing (NGS) analysis. For the intramuscular (IM) groups, both the left and right gastrocnemius were weighed and harvested. For all other groups, only the left gastrocnemius was weighed and harvested.
The genomic DNA isolated from the muscle tissues was subject to NGS and aligned to a reference DNA sequence for the analysis of insertions or deletions (indels).

In the next experiment the test system is DMD. Briefly: DMD exon precise editing in HEK293T cells with CasPhi.12 engineered variant, MCP-RT and retRNA, Amplicon Sequencing. The format is cell-based, human. Particulars: MCP-RT SEQ ID NO: 1608, retRNA SEQ ID NO: 1590, guide SEQ ID NO: 1327, 72 hours. As for the experimental part: HEK293T cells were transfected with plasmids encoding effector protein CasPhi.12 L26R, I471T, S223P, D703G (SEQ ID NO: 1607), a reverse transcriptase (RT) (SEQ ID NO: 1608), a retRNA (SEQ ID NO: 1590), and a guide nucleic acid targeting DMD (SEQ ID NO: 1327). The effector protein was not linked to the RT, but the RT was fused to an MS2 coat protein (MCP) capable of binding an MS2 aptamer loop in the retRNA. Cells were harvested 72 hours later and cell lysates were prepared for Amplicon Sequencing. The percentage of reads containing precise edits were analyzed.

B1: CasM.265466 D220R: variant of CasM.265466, SEQ ID NO: 1602; delivered encoded in AAV9-4A vectors PL31719, PL31720, PL31721 (protein)
chain: MSVLTRKVQLIPVGDKEERDRVYKYLRDGIEAQNRAMNLYMSGLYFAAINEASKEDRKELNQLYSRIATSSKGSAYTTDIEFPTGLASTSTLSMAVRQDFTKSLKDGLMYGRVSLPTYRKDNPLFVDVRFVALRGTKQKYNGLYHEYKSHTEFLDNLYSSDLKVYIKFANDITFQVIFGNPRKSSALRSEFQNIFEEYYKVCQSSIQFSGTKIILNMAMRIPDKEIELDEDVCVGVDLGIAIPAVCALNKNRYSRVSIGSKEDFLRVRTKIRNQRKRLQTNLKSSNGGHGRKKKMKPMDRFRDYEANWVQNYNHYVSRQVVDFAVKNKAKYINLENLEGIRDDVKNEWLLSNWSYYQLQQYITYKAKTYGIEVRKINPYHTSQRCSCCGYEDAGNRPKKEKGQAYFKCLKCGEEMNADFNAARNIAMSTEFQSGKKTKKQKKEQHENK
As to B1, the indel rate result with mouse PCSK9 gene (diaphragm, PL31719 vector, IV administration, 4 weeks after treatment) is “about 10%”; with mouse PCSK9 gene (heart, PL31719 vector, IV administration, 4 weeks after treatment), “about 20%”; in the experiment with mouse PCSK9 gene (heart, second statement ('Additionally'), vector PL31719, IV administration) it was “about 11%”; in the experiment on mouse PCSK9 gene (left gastrocnemius, PL31719 vector, IV administration, 4 weeks after treatment), “about 15%”; with mouse PCSK9 gene (left gastrocnemius, second statement ('Additionally'), vector PL31719, IV administration), “about 10%”; in the experiment on mouse PCSK9 gene (liver, PL31719 vector, IV administration, 4 weeks after treatment) it was “about 25%”. Further, the indel rate result is listed as “about 5%” in the experiment with mouse PCSK9 gene (masseter, PL31719 vector, IV administration, 4 weeks after treatment); “about 13%” in the experiment with mouse PCSK9 gene (pectoral, PL31719 vector, IV administration, 4 weeks after treatment); “about 3%” with mouse PCSK9 gene (pectoral, second statement ('Additionally'), vector PL31719, IV administration). Also, the “fold greater indel rate in the heart compared to SaCas9” value in the experiment with mouse PCSK9 gene (heart, versus SaCas9 delivered in the PL26295 vector via IV administration) is reported as “approximately 2 fold”. Besides, in the experiment with mouse PCSK9 gene, the “inducing indels in vivo at the PCSK9 locus across different muscle tissues” value is listed as “highly efficient”.

B2: CasPhi.12 L26R: variant of CasPhi.12, SEQ ID NO: 1603; delivered encoded in AAV9-4A vectors PL26297 or PL31718 (protein)
chain: MIKPTVSQFLTPGFKLIRNHSRTAGRKLKNEGEEACKKFVRENEIPKDECPNFQGGPAIANIIAKSREFTEWEIYQSSLAIQEVIFTLPKDKLPEPILKEEWRAQWLSEHGLDTVPYKEAAGLNLIIKNAVNTYKGVQVKVDNKNKNNLAKINRKNEIAKLNGEQEISFEEIKAFDDKGYLLQKPSPNKSIYCYQSVSPKPFITSKYHNVNLPEEYIGYYRKSNEPIVSPYQFDRLRIPIGEPGYVPKWQYTFLSKKENKRRKLSKRIKNVSPILGIICIKKDWCVFDMRGLLRTNHWKKYHKPTDSINDLFDYFTGDPVIDTKANVVRFRYKMENGIVNYKPVREKKGKELLENICDQNGSCKLATVDVGQNNPVAIGLFELKKVNGELTKTLISRHPTPIDFCNKITAYRERYDKLESSIKLDAIKQLTSEQKIEVDNYNNNFTPQNTKQIVCSKLNINPNDLPWDKMISGTHFISEKAQVSNKSEIYFTSTDKGKTKDVMKSDYKWFQDYKPKLSKEVRDALSDIEWRLRRESLEFNKLSKSREQDARQLANWISSMCDVIGIENLVKKNNFFGGSGKREPGWDNFYKPKKENRWWINAIHKALTELSQNKGKRVILLPAMRTSITCPKCKYCDSKNRNGEKFNCLKCGIELNADIDVATENLATVAITAQSMPKPTCERSGDAKKPVRARKAKAPEFHDKLAPSYTVVLREAV
Regarding B2, the “indel rate in the PCSK9 gene” value in the experiment with mouse PCSK9 gene (heart, PL26297 vector, IV administration, 4 weeks after treatment) is on record as “about 8%”; with mouse PCSK9 gene (heart, PL31718 vector, IV administration, 4 weeks after treatment) it was “about 8%”; with mouse PCSK9 gene (masseter, PL26297 vector, IM administration, 4 weeks after treatment) it was “about 3%”; in the experiment on mouse PCSK9 gene (right gastrocnemius, PL26297 vector, IM administration, 4 weeks after treatment), “about 5%”. For the same molecule, the “inducing indels in vivo at the PCSK9 locus across different muscle tissues” value in the experiment with mouse PCSK9 gene is “highly efficient”.

B3: CasPhi.12 L26R, I471T, S223P, D703G: CasPhi.12 engineered variant, SEQ ID NO: 1607 (protein)
chain: B2 chain with S223P, I471T, D703G
As for B3, in the experiment on DMD, the “precise editing, average (percentage of reads containing precise edits)” value came out at 1.6% and the “precise editing, one replicate” value was 2.1%.
